# Reference: patent US20090098103A1
# Tests used:
# Experiment in all cases: cell-based or functional assay
# [1] = biological target: FVIIa variant CB611 D196L/K197L (human) (UniProt P08709)
# [2] = biological target: FVIIa variant CB701 R290V (human) (UniProt P08709)
# [3] = biological target: FVIIa variant CB606 G237T (human) (UniProt P08709)
# [4] = biological target: FVIIa variant CB593 V158D/E296V/M298Q (human) (UniProt P08709)
# [5] = biological target: FVIIa variant CB612 D196F/K197L (human) (UniProt P08709)
# [6] = biological target: FVIIa variant CB693 K197E/K199E/G237V/M298Q/K341Q (human) (UniProt P08709)
# [7] = biological target: FVIIa variant CB733 K341N (human) (UniProt P08709)
# [8] = biological target: FVIIa variant CB689 K197E/G237V (human) (UniProt P08709)
# [9] = biological target: FVIIa variant CB568 R290A (human) (UniProt P08709)
# [10] = biological target: FVIIa variant CB592 M298Q (human) (UniProt P08709)
# [11] = biological target: FVIIa variant CB596 K197V (human) (UniProt P08709)
# [12] = biological target: FVIIa variant CB604 D196I (human) (UniProt P08709)
# [13] = biological target: FVIIa variant CB691 K197E/K199E/K341Q (human) (UniProt P08709)
# [14] = biological target: FVIIa variant CB615 D196F/K197E (human) (UniProt P08709)
# [15] = biological target: FVIIa variant CB698 R290Q (human) (UniProt P08709)
# [16] = biological target: FVIIa variant CB561 K197Y (human) (UniProt P08709)
# [17] = biological target: FVIIa variant CB588 D196R/K197E/K199E/R290E (human) (UniProt P08709)
# [18] = biological target: FVIIa variant CB671 K197E/G237V/K341Q (human) (UniProt P08709)
# [19] = biological target: FVIIa variant CB694 K199E/K341Q (human) (UniProt P08709)
# [20] = biological target: FVIIa variant CB638 K197L/K341Q (human) (UniProt P08709)
# [21] = biological target: FVIIa variant CB614 D196W/K197L (human) (UniProt P08709)
# [22] = biological target: FVIIa variant CB590 D196R/K197M/K199E/R290E (human) (UniProt P08709)
# [23] = biological target: FVIIa variant CB599 K197M (human) (UniProt P08709)
# [24] = biological target: FVIIa variant CB670 G237V/K341Q (human) (UniProt P08709)
# [25] = biological target: wild-type Factor VII polypeptide (CB553-02), activated (FVIIa) (human) (UniProt P08709)
# [26] = biological target: FVIIa variant CB559 K197A (human) (UniProt P08709)
# [27] = biological target: FVIIa variant CB700 R290M (human) (UniProt P08709)
# [28] = biological target: FVIIa variant CB591 L305V/S314E/L337A/F374Y (human) (UniProt P08709)
# [29] = biological target: FVIIa variant CB601 D196Y (human) (UniProt P08709)
# [30] = biological target: FVIIa variant CB581 D196R/R290D (human) (UniProt P08709)
# [31] = biological target: FVIIa variant CB562 K199D (human) (UniProt P08709)
# [32] = biological target: FVIIa variant CB580 D196K/R290E (human) (UniProt P08709)
# [33] = biological target: FVIIa variant CB699 R290K (human) (UniProt P08709)
# [34] = biological target: FVIIa variant CB556 D196A (human) (UniProt P08709)
# [35] = biological target: FVIIa variant CB603 D196L (human) (UniProt P08709)
# [36] = biological target: FVIIa variant CB735 K341D (human) (UniProt P08709)
# [37] = biological target: FVIIa variant CB734 K341M (human) (UniProt P08709)
# [38] = biological target: FVIIa variant CB567 R290E (human) (UniProt P08709)
substance,measurement,setting,value
Human Recombinant TFPI (R&D Systems) (from UniProt P10646 29-282),TFPI fold resistance (fold vs wild-type FVIIa),[1],< 0.3
same,TFPI fold resistance (fold vs wild-type FVIIa),[2],2.5
same,TFPI fold resistance (fold vs wild-type FVIIa),[3],0.3
same,IC50 of TFPI inhibition of FVIIa/TF,[4],0.041 µM
same,TFPI fold resistance (fold vs wild-type FVIIa),[4],0.8
same,pIC50 of TFPI inhibition of FVIIa/TF,[4],7.4
same,TFPI fold resistance (fold vs wild-type FVIIa),[5],< 0.3
same,TFPI fold resistance (fold vs wild-type FVIIa),[6],22.1
same,TFPI fold resistance (fold vs wild-type FVIIa),[7],10.7
same,TFPI fold resistance (fold vs wild-type FVIIa),[8],1.7
same,IC50 of TFPI inhibition of FVIIa/TF,[9],0.2 µM
same,TFPI fold resistance (fold vs wild-type FVIIa),[9],2.8
same,pIC50 of TFPI inhibition of FVIIa/TF,[9],6.7
same,IC50 of TFPI inhibition of FVIIa/TF,[10],0.035 µM
same,TFPI fold resistance (fold vs wild-type FVIIa),[10],0.5
same,pIC50 of TFPI inhibition of FVIIa/TF,[10],7.5
same,TFPI fold resistance (fold vs wild-type FVIIa),[11],0.6
same,TFPI fold resistance (fold vs wild-type FVIIa),[12],< 0.3
same,TFPI fold resistance (fold vs wild-type FVIIa),[13],34.3
same,TFPI fold resistance (fold vs wild-type FVIIa),[14],< 0.3
same,TFPI fold resistance (fold vs wild-type FVIIa),[15],1.2
same,IC50 of TFPI inhibition of FVIIa/TF,[16],0.11 µM
same,TFPI fold resistance (fold vs wild-type FVIIa),[16],1.5
same,pIC50 of TFPI inhibition of FVIIa/TF,[16],7
same,IC50 of TFPI inhibition of FVIIa/TF,[17],0.028 µM
same,TFPI fold resistance (fold vs wild-type FVIIa),[17],0.4
same,pIC50 of TFPI inhibition of FVIIa/TF,[17],7.6
same,TFPI fold resistance (fold vs wild-type FVIIa),[18],18.9
same,TFPI fold resistance (fold vs wild-type FVIIa),[19],19.1
same,TFPI fold resistance (fold vs wild-type FVIIa),[20],39
same,TFPI fold resistance (fold vs wild-type FVIIa),[21],< 0.3
same,IC50 of TFPI inhibition of FVIIa/TF,[22],0.066 µM
same,TFPI fold resistance (fold vs wild-type FVIIa),[22],0.9
same,pIC50 of TFPI inhibition of FVIIa/TF,[22],7.2
same,TFPI fold resistance (fold vs wild-type FVIIa),[23],0.3
same,TFPI fold resistance (fold vs wild-type FVIIa),[24],14.1
same,IC50 of TFPI inhibition of FVIIa/TF,[25],0.088 µM
same,TFPI fold resistance (fold vs wild-type FVIIa),[25],1
same,pIC50 of TFPI inhibition of FVIIa/TF,[25],7.1
same,IC50 of TFPI inhibition of FVIIa/TF,[26],0.053 µM
same,TFPI fold resistance (fold vs wild-type FVIIa),[26],0.7
same,pIC50 of TFPI inhibition of FVIIa/TF,[26],7.3
same,TFPI fold resistance (fold vs wild-type FVIIa),[27],1
same,IC50 of TFPI inhibition of FVIIa/TF,[28],0.043 µM
same,TFPI fold resistance (fold vs wild-type FVIIa),[28],0.6
same,pIC50 of TFPI inhibition of FVIIa/TF,[28],7.4
same,TFPI fold resistance (fold vs wild-type FVIIa),[29],< 0.3
same,IC50 of TFPI inhibition of FVIIa/TF,[30],0.032 µM
same,TFPI fold resistance (fold vs wild-type FVIIa),[30],0.4
same,pIC50 of TFPI inhibition of FVIIa/TF,[30],7.5
same,IC50 of TFPI inhibition of FVIIa/TF,[31],0.063 µM
same,TFPI fold resistance (fold vs wild-type FVIIa),[31],0.9
same,pIC50 of TFPI inhibition of FVIIa/TF,[31],7.2
same,IC50 of TFPI inhibition of FVIIa/TF,[32],0.052 µM
same,TFPI fold resistance (fold vs wild-type FVIIa),[32],0.7
same,pIC50 of TFPI inhibition of FVIIa/TF,[32],7.3
same,TFPI fold resistance (fold vs wild-type FVIIa),[33],0.6
same,IC50 of TFPI inhibition of FVIIa/TF,[34],0.005 µM
same,TFPI fold resistance (fold vs wild-type FVIIa),[34],< 0.3
same,pIC50 of TFPI inhibition of FVIIa/TF,[34],8.3
same,TFPI fold resistance (fold vs wild-type FVIIa),[35],< 0.3
same,TFPI fold resistance (fold vs wild-type FVIIa),[36],148
same,TFPI fold resistance (fold vs wild-type FVIIa),[37],4.4
same,IC50 of TFPI inhibition of FVIIa/TF,[38],0.44 µM
same,TFPI fold resistance (fold vs wild-type FVIIa),[38],6.1
same,pIC50 of TFPI inhibition of FVIIa/TF,[38],6.4
